In a protein production outcome set (Wang et al. 2014) one finds protein production data, which are given here for 17 sequences.

A short description of this series: label from the status in PepcDB records.
Take “MYKKLILLFFILITFNLFSDEDVLVFYSQPSSIASKFVTGILQDSYGRIWFGTKEGLAYYDGIKYKNYEYIPFSKDSIQSSQIQCLYNDPRKAENGSDVFWIGTFYGVERFNVDTETFTHFDMTSSVVLCFLRDSHGRLWIGTLDGLYILNEDDGSVVKFSQASEFYIGNNGISHIYEDSEGRIYACTHEGLWEYDEPNKRFRRSRLFEKNSAVTDSIINNIFEEDGIYWVSVWDTGLFRIDPKNGKRDLFSFSNNKITCLSNEFSDNVLLIGTWGGGLISFDKNTYSYTEYTSKQRSYNLSNDFIFSIYVDTYGSLWVGTNGGGVNIYDTKRMWSKLILPHENKIDGRENSVSGLTKDKNGNLWISLLNNGITYYDLSTGKKKYYRYSESKIISNSVFKFYIDKNEDIWVGTDLGLCKYDKKKDAFVGVNLYNDNIIEDGERLIYNIISDDNEFLWIGTYDGGLIKFSPSSGILKRYKNDPKNPNSICSNLVFSLLIDSYKRLWVGTNKGLAEYKPSTDEFAIYRYDVNNRKGISSDRITSLFQDVSGKLWIGTSDGGINIFDTEKKEALNYTANEGLPANFIIGMTHMDNHSICVTAIKGMTIFNKDTEIIYSYTLYNHERRFTTVPIMIGDQCFVGTQEGVLGMDINYLLSFKRQEVPVKIRTIGINGNQTPVFKIDLQKTYKYKYSENNISFEFSSMDLSPLSRPSYIFMLEGFDKNWINANMKNYVQYTNLKPGKYTFKVKDISNPYPEPTSFTFIIEKPFWLSTPMIAVYILIFAGLTFLACRINRLFQYKIANKKLQQEQKDLISANEQLTVLSTVDELTGVGNRRQLDTVGKDLWRRGLDNKQPISLIMIDIDLFKQYNDLYGHQAGDNVLRTVAQTLQKKLRAKYDFVGRYGGEEFLVLLYNSSASETMKIAEKLRIEIKNLNIEHSAEKDKILTISLGAYTSVPNNELSYETMLSFADSALYKAKESGRDICKMYTE”: the protein production entry is “failed”.

In the case of “MQLHELVNTLGQDLQRRYGEKVHKLTLHGGFSCPNRDGTIGRGGCTFCNVASFADEEVQIKSIHEQLKDRAGEIHRAKKYLAYFQAYTSTYAEVQVLKNMYEEALKAADIVGLCVGTRPDCVPDSVLDLLSDYVNQGYEIWLELGLQTANNDTLKRINRGHDFECYAEITQRARALGIKVCTHLIVGLPKETRDDNIETLQKVLAVGTDGIKLHGLHIVEGSTMAKAWRAGRLEAPGLEEYVAIASEMIRMTPADVVFHRVSSAARRPTLLSPLWCENRWLAMTEIGRALNKDGAQGSLIGKPFIYTKPELKADCSINN”, the protein production entry is reported as “failed”.

Turning to “MTPSISLITSYSLLPAILMLIGGGIASLYRPGGSITSATQHFAAGVVFAAVAKELLPKIGAYHDPLALIIGFSVGILAMLFLKWLANRLEDLEQEKTGLSWGLLTAVGIDLLIDGILIGVAFLAGERGGILIAIALAIEIFFLGLSTTATLGARQVNVPIRLLTSVILAILIPVGAALGASLLIHLPLSITNGILSFGVAALLYLVTEELLLEAHGVRETPYITLCFFIGFLLILLLEGLAA”, the protein production entry was “failed”.

In the case of “MKIMIFICGEGLGHTSRCLALGKELLNAGHEIKFGAYGYSKELVEKTGYTAQEIPSEIKLVGKAGSLDLTGSIEATLKSAQLLGGPKLLKLLREFKPDVVVSDSYYLGTLAAMVLKLPVYLIINQSNMEEFFKNRGLEHHHHHH”, the protein production result was “not failed”.

Take “MNLNDYKGILVFAEQRDGILQNVGLELLGKATELAYEINKQIALKDAGDELADFAGKKEAAIKSVDVAAATLEEDDQELKNKVADIKKNNPDAAKVTALLVGHNIKNLAQDLIKAGADKVLVVDKPELEVYDTEAYAQVLTATINDQKPEIVLFGATTLGRDLAPRVSSRIATGLTADCTKLELLKDKERQLGMTRPAFGGNLMATIVSPDHRPQMATVRPGVMKKLPKSDDRTGEVVEFPVTLDTSKMKVKLLKVVKEGGNKVDISEAKILVSGGRGVGSKQNFELLEDLATEIGGIVSSSRAQVDAGNMPHDRQVGQTGKTVRPEVYFACGISGAIQHVAGMEESEFIIAINKDRFAPIFSVADLGIVGDLHKILPILTEEIKKYKATK”: the protein production result was “failed”.

“MLLHNGPMKLAEALIERADLQKRAAQLEERLVQNMQVQEGEVPAEDPRELLNELLTVSSALEVLLPRIHRANLSATLPSGQTLTDALTRRDLLDARLKALRRAATAAAERQTRYSNSELRMVAVIPPSELQKLADVMAKERRELEVQIQQANWQTDLPGSGALEHHHHHH”: the protein production result was “not failed”.

As to “DTRWLAFNIQRAVFSDRRVREAITLAFDFEWMNKALFYNAWSRTNSYFQNTEYAARNYPDAAELVLLAPMKKDLPPEVFTQIYQPPVSKGDGYDRDNLLKADKLLNEAGWVLKGQQRVNATTGQPLSFELLLPASSNSQWVLPFQHSLQRLGINMDIRKVDNSQITNRMRNRDYDMMPRLWRAMPWPSSDLQISWSSEYINSTYNAPGVQSPVIDSLINQIIAAQGNKEKLLPLGRALDRVLTWNYYMLPMWYMA”, the protein production result is recorded as “failed”.

For “EQITHWIVVQQDTTEQQRVQQAMRTQRDRLQRMQGVAQTGGWEYDPKSDSFTGSNEFYRLIGLPQSTNFDLERAFQLYPPSVRGRVKTAAQRCLEDGSPFDMEVPLVSATGQHREVRVRGSAEREEG”, the protein production result is “failed”.

For “MPTLEMPVAAVLDSTVGSSEALPDFTSDRYKDAYSRINAIVIEGEQEAHDNYIAIGTLLPDHVEELKRLAKMEMRHKKGFTACGKNLGVEADMDFAREFFAPLRDNFQTALGQGKTPTCLLIQALLIEAFAISAYHTYIPVSDPFARKITEGVVKDEYTHLNYGEAWLKANLESCREELLEANRENLPLIRRMLDQVAGDAAVLQMDKEDLIEDFLIAYQESLTEIGFNTREITRMAAAALVS”, the protein production result was “not failed”.

For “MGSPASASHEALRHILDAGASMGSLQGLDEAQQQALYAIAHGAYEQGRYADALKMFCLLVACDPLEARYLLALAAAAQELGLYEHALQQYAAAAALQLDSPRPLLHGAECLYALGRRRDALDTLDMVLELCGSPEHAALRERAESLRRSYARALEHHHHHH”, the protein production entry is “failed”.

On to “MKLRYLNILKEKLGREPTFVELQAFSVMWSEHCGYSHTKKYIRRLPKTGFEGNAGVVNLDDYYSVAFKIESHNHPSAIEPYNGAATGVGGIIRDVLAMGARPTAIFDSLHMSRIIDGIIEGIADYGNSIGVPTVGGELRISSLYAHNPLVNVLAAGVVRNDMLVDSKASRPGQVIVIFGGATGRDGIHGASFASEDLTGDKATKLSIQVGDPFAEKMLIEAFLEMVEEGLVEGAQDLGAGGVLSATSELVAKGNLGAIVHLDRVPLREPDMEPWEILISESQERMAVVTSPQKASRILEIARKHLLFGDVVAEVIEEPVYRVMYRNDLVMEVPVQLLANAPEEDIVEYTPGKIPEFKRVEFEEVNAREVFEQYDHMVGTDTVVPPGFGAAVMRIKRDGGYSLVTHSRADLALQDTYWGTLIAVLESVRKTLSVGAEPLAITNCVNYGDPDVDPVGLSAMMTALKNACEFSGVPVASGNASLYNTYQGKPIPPTLVVGMLGKVNPQKVAKPKPSKVFAVGWNDFELEREKELWRAIRKLSEEGAFILSSSQLLTRTHVETFREYGLKIEVKLPEVRPAHQMVLVFSERTPVVDVPVKEIGTLSR”, for which the protein production entry is “not failed”.

Take “MITLAVRLKNLAFLLIAVLALSFLGIRYADLGRYVGVADYYTVDVHLPRTGGLFTHSDVTYRGVSVGRVGPIDLTAEGVVAELRIKKSAPRIPADTKAVVAGLSAVGEQYIDLRPESDGSPYLADGTRIEQADTEVPAPVTDVLTSVDDLASSVPLEDLRTVVDEFGKAFDGHGDDLQVLLDSGSDFVEAADRALPSTTLLINDGETVLRTQAQEARAIRDFAVGAKDLAAALKGSDADLRRLLAVTPEAATQVSGLLRDLDPSLGVVLANLLTTSEVAVTRQRGIEELLVKYPAAVSAGATAVDGGKLDLGLAVTFFSPLPCTDGYGGTRYRNGLDLGTAPALNTDAACTAPASGGKNVRGSANAPKSGAVPDPATPGSLPSGGGRTTPAGGGSPARDGSTALPGALALPGQSGEAPAGLTGLLAPAAGGARLEHHHHHH”: the protein production entry is “failed”.

As to “MMTKAFFNKLPFEVFRRYVRTGKSIPQRSPRTRKSLLVGGTIASAVVLYNFNDTFHDSVKHTALTTKRIAVVTQATTRCFYHYKRALNKSYENKKEREVALNKCHKMCALITLHALRSNGGIYIKLGQHIGAMTYLLPKEWTDTMIPLQDHCPESTYEEIDELFKEDLGTSIEDMFLEFNKTPIGVASLAQVHVAKLKNSDGKGSSVAVKCQHPSLKEFIPLDVMLTRTVFELLDVFFPDYPLTWLGDELQSSIYVELNFTKEAENAEKTRHYFSKFKKQTALKIPKVIESHKRILIAEYVGGKRLDDLEYIDSHGISRSEVSSCLSHIFNNMIFTPNVGIHCDPHGGNLAIRSVKPAKDNGYHNFEIVLFDHGLYRYPSTRTRRLYAKFWLSLLFDKDQTKMKKYAKGFANITDEQFPLLAAAITGRSIDAALNYDISTSRTQEEMDVMANGILEGTLLSDLMSILSRIPRVVLLILKTNDLTRHLDECLQNPLGPERTFLIMTQYCAKTVYDEKVERINSEYARWSIKWMWENLTNWIVYERRINQLYFYDFVLWWKKFIPKTWLSS”, the protein production result is on record as “failed”.

As to “MSDAAEIRMDAGALNAFLHRAFPEVDPEQMPQVLEVEAGRALLKLPYASRQLRPGGVISGPTMMSLADTAAYAMILARIGEVALSVTTSLNIHFLRGCKPGDLYAEATLLKLGRRIATVDVLMWTQGRERAAAKATVAYAIP”, the protein production entry is given as “failed”.

As for “MLAQIEQEHYSKLHEILRLCRANLKNYDESLIQRAFFMCYRAHEGEKRASGEPFFYHPVEVAKLLVTELPLDGVSVAAALLHDVIEDSGYTYEDISAELGAEVADIVEGLTKISEIMVNRETTEAEGFRKMLLSMVKDIRVILIKFCDRLHNMRTLDSLPEHRRLRMALETRDIYAPLAHRFGLGKMKVDLENLALKYIDPEMYDYLLKKVRLSRNERVAYLNKMIAPIKDDLEKQGFTVELQGRAKHLYSIYNKMRMKNKKFDDIHDLYGIRVIIDTEKISDCFAVYGYITQQFPPIPQHFKDYISIPKHNGYQSLHSAIIGPKGHVVELQIRTRRMHEFAELGVAAHWRYKEKISKDDAALDSFLKWARELIKDADSATAFMEGFKLNLYHDEIYVFTPKGDMKVLPAGATPIDFAYAIHSEIGNGCIGAKVNGKIVRLNTELRSGDRVEVITSKSQRPKADWLKIVVTHRAKLKIRAAINEERRQEIEKGRSIWEKMLSGSKKLFTENDAIRAIRQHGIKTPADLFNALAKQQISSEEVLERISHPHRPAETHESTVQARAPHKDFAEIAREVQERLGYQKDEVTIAGLNNISYSYAKCCNPVPGDDIIGFVTTGGTVKIHRKNCVNVTNENSVKSERIVSVAWNRKVDTDFLAGIRIVGEDKIGMTNQITGVISKFDTNIRTIVLNAKDGIFTCNLMIFVKNTDKLTTLMDKLRKVQGVFTVERLSN”, the protein production entry is “failed”.

On to “MDDPFASLEPLAVAPSGPEGVRAQFDQMEDIPPPRPRQPPPAQEDPVEIEVTEDGVARAFTEKYGGTLRFDHDAGRWYHWQEDHWQADTTSRAFEYCRRLARLASEGAKHSLLSTARKASFAGGVERLARADPAHAVTQEAWDRDPWLVACPGETVDLRTGRSAVPRPEDGITRRVAVAPAAQETCPTWWQFLEDATGADSSVMRFLQQWAGYSLTGITREHTLVFLYGDGGNGKSVFINTLTGLLGDYAATAGMETFTASKSDRHPTDLAMLAGARLVAASETEEGRAWAESRIKQMTGGDRITARFMRRDFFTYTPQFKLTLVGNHRPALANVKPVEPWALVVPAELETVAQQVLAEIAAAAVSDVNPFSGTLELIVEPGLTSATGWYLIGNPALHDGLAHAFLDGQSAPRIETRAGWNTLGMEFRLTWAVDAKFIGTASWFRNPGASGCPRCRPRNAQRQGVALLCLARRSEVLDRLEHHHHHH”, for which the protein production entry is “failed”.

For “MASLAAVVRALLRRESQRATGYALREWTMLTARHLPYLQGQLTLGRIAAVGHLQRSTLGRSEWHTSSAPLFGEGRGRWHWGLSTSDVVDGSDHEHHSTETGGRELPSFKTGELGSDVDGDRAALEAWLAQIRDETSGWPELSLDALRDELDEELEGDDDDNDDDDDETYENEELLKALQEAVNRHRTPVVALVSGRVVHLRRTAAPKRSPRAGRVPRNEPQTTSRDTTKADANDNECT”, the protein production result is reported as “not failed”.
